Common to all, as to test: plate-based fluorescence binding assay
For assay [1], the target named is T1, TrkB (Rattus norvegicus, UniProt Q63604).
T1 chain: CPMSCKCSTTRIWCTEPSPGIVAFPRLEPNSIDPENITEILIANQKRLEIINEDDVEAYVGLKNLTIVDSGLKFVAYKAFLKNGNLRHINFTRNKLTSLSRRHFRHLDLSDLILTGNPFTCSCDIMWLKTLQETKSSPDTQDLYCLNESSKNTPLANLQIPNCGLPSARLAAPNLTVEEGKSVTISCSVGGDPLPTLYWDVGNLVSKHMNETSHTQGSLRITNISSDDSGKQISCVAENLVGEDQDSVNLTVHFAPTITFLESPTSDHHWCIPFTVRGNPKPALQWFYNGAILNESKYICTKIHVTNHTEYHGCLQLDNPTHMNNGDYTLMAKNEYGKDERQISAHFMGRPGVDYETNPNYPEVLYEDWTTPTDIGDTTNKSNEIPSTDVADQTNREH

Assay [2] has as its target T1, TrkB.
Assay [3] deals with T1, TrkB.
For assay [4], the target named is T1, TrkB.

Where two headings read alike, the source gives them in different places.

B1: BDNF (protein)
chain: HSDPARRGELSVCDSISEWVTAADKKTAVDMSGGTVTVLEKVPVSKGQLKQYFYETKCNPMGYTKEGCRGIDKRHWNSQCRTTQSYVRALTMDSKKRIGWRFIRIDTSCVCTLTIKRGR
For B1, the Kd (in general, the free concentration of one partner at which half of the binding sites on the other are occupied at equilibrium, for simple one-to-one binding) with TrkB [1] is 3.37 nM; with TrkB [2], 0.53 nM; in the assay with TrkB [3], 0.00179 nM; with TrkB [4], 0.00011 nM.

Values taken from article PMC3161730 (2012).
